For experiment [1], the target named is human CTLA4, full length, on transfected HEK293 cells (human) (UniProt P16410). Nature of the experiment: flow cytometry, Fc fusion at 66.6 nM on HEK293 cells transfected with CTLA4.
In experiment [2] the target is human CD28, full length, on transfected HEK293 cells (human) (UniProt P10747). Nature of the experiment: flow cytometry, Fc fusion at 66.6 nM on HEK293 cells transfected with CD28. (In flow cytometry, cells or beads pass a laser one at a time.)
Experiment [3] has as its target human PD-L1, full length, on transfected HEK293 cells (human) (UniProt Q9NZQ7). Nature of the experiment: flow cytometry, Fc fusion at 22.2 nM on HEK293 cells transfected with PD-L1.
The target of a further experiment is CTLA4 (human) (UniProt P16410). Nature of the experiment: flow cytometry on HEK293 cells transfected with CTLA4.
The next experiment concerns the target CD28 (human) (UniProt P10747). Nature of the experiment: flow cytometry on HEK293 cells transfected with CD28.
A further experiment addresses PD-L1 (human) (UniProt Q9NZQ7). Kind of experiment: flow cytometry on HEK293 cells transfected with PD-L1.
For experiment [4], the target named is human CD28, full-length, expressed on transfected Expi293 cells (human) (UniProt P10747). Kind of experiment: flow cytometry on CD28-expressing Expi293 cells.
For experiment [5], the target named is human PD-L1, full-length, expressed on transfected Expi293 cells (human) (UniProt Q9NZQ7). Kind of experiment: flow cytometry on PD-L1-expressing Expi293 cells.
Experiment [6] deals with human CTLA-4, full-length, expressed on transfected Expi293 cells (human) (UniProt P16410). Kind of experiment: flow cytometry on CTLA-4-expressing Expi293 cells.
Sequence of human CTLA-4, full-length, expressed on transfected Expi293 cells (human) (P16410 36-223 limits assumed): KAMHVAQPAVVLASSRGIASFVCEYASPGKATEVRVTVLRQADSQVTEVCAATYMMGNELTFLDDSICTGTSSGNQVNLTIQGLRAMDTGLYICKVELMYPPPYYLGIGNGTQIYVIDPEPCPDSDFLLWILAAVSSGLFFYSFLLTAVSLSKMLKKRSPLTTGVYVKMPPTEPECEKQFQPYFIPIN

Sequence of CD80 IgV Fc (wild-type CD80 IgV domain fused to Fc) (P33681 35-141 limits assumed): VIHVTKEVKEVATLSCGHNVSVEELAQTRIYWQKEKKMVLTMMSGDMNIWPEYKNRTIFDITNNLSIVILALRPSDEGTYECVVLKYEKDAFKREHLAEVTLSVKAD
Sequence of CTLA4 (human) (P16410 36-223 limits assumed): as the sequence (P16410 36-223 limits assumed) above
Sequence of human CTLA4, full length, on transfected HEK293 cells (human) (P16410 36-223 limits assumed): as above
Sequence of human PD-L1, full length, on transfected HEK293 cells (human) (Q9NZQ7 19-290 limits assumed): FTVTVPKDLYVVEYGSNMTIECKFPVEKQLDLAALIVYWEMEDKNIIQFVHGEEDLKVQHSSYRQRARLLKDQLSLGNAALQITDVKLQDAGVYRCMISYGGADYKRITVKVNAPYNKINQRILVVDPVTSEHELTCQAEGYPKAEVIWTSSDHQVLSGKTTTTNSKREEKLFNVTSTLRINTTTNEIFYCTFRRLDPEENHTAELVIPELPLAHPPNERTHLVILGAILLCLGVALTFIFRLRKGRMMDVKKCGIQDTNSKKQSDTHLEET
Sequence of human PD-L1, full-length, expressed on transfected Expi293 cells (human) (Q9NZQ7 19-290 limits assumed): as above
Sequence of PD-L1 (human) (Q9NZQ7 19-290 limits assumed): as above

As for “CD80 IgV Fc (wild-type CD80 IgV domain fused to Fc) (from UniProt P33681 35-141) (Fc fusion)”, the MFI at 66.6 nM in experiment [1] is 20700 MFI; in [2], 1620 MFI. This substance showed an MFI at 22.2 nM in [3] of 1770 MFI.

Regarding “CD80 IgV-Fc A71D (from UniProt P33681 35-141) (Fc fusion)”, the MFI at 66.6 nM with CTLA4 (human) amounted to 220000 MFI; with CD28 (human) it was 16800 MFI. Moreover, the MFI at 22.2 nM with PD-L1 (human) is 29600 MFI.

For the substance “CD80 IgV-Fc E35D/M47I/L65P/D90N (from UniProt P33681 35-141) (Fc fusion)”, the MFI at 66.6 nM was 4410 MFI with CTLA4 (human) and 2530 MFI with CD28 (human). Besides, the MFI at 22.2 nM with PD-L1 (human) was found to be 4030 MFI.

With “CD80 IgV-Fc L25S/E35D/M47I/D90N (from UniProt P33681 35-141) (Fc fusion)”, the MFI at 66.6 nM was found to be 61300 MFI with CTLA4 (human) and 4840 MFI with CD28 (human). This substance registered an MFI at 22.2 nM in the experiment with PD-L1 (human) of 20900 MFI.

Consider “CD80 IgV-Fc L72P/T79I (from UniProt P33681 35-141) (Fc fusion)”, for which the values for the MFI at 66.6 nM in the experiment with CTLA4 (human) and in the experiment with CD28 (human) were 50200 MFI and 3400 MFI, respectively. The substance also returned an MFI at 22.2 nM in the experiment with PD-L1 (human) of 6020 MFI.

On to “CD80 IgV-Fc M42I/I61V/A71D (from UniProt P33681 35-141) (Fc fusion)”, for which the MFI at 66.6 nM with CTLA4 (human) worked out at 54500 MFI; with CD28 (human), 6070 MFI. In the experiment with PD-L1 (human), this substance gave an MFI at 22.2 nM of 4230 MFI.

With “CD80 IgV-Fc M47I/E88D (from UniProt P33681 35-141) (Fc fusion)”, the MFI at 66.6 nM was 105000 MFI with CTLA4 (human) and 7340 MFI with CD28 (human). For the same substance, the MFI at 22.2 nM with PD-L1 (human) came to 97700 MFI.

Consider “CD80 IgV-Fc M47V/N48H (from UniProt P33681 35-141) (Fc fusion)”, for which the MFI at 66.6 nM amounted to 207000 MFI with CTLA4 (human) and 14600 MFI with CD28 (human). For the same substance, in the experiment with PD-L1 (human), the MFI at 22.2 nM is 146000 MFI.

In the case of “CD80 IgV-Fc S44P/A71D (from UniProt P33681 35-141) (Fc fusion)”, the figures for the MFI at 66.6 nM with CTLA4 (human) and with CD28 (human) were 8840 MFI and 2740 MFI, respectively. Further, the MFI at 22.2 nM with PD-L1 (human) was 6310 MFI.

Consider “CD80 IgV-Fc T13R/C16R/L70Q/A71D (from UniProt P33681 35-141) (Fc fusion)”, for which the MFI at 66.6 nM in the experiment with CTLA4 (human) turned out to be 197000 MFI; with CD28 (human), 16100 MFI. Further, the MFI at 22.2 nM with PD-L1 (human) amounted to 9520 MFI.

Turning to “CD80 IgV-Fc T57I (from UniProt P33681 35-141) (Fc fusion)”, the values for the MFI at 66.6 nM in the experiment with CTLA4 (human) and with CD28 (human) were 394000 MFI and 23600 MFI, respectively. Further, the MFI at 22.2 nM with PD-L1 (human) is 3380 MFI.

In the case of “CD80 IgV-Fc T79P (from UniProt P33681 35-141) (Fc fusion)”, the values for the MFI at 66.6 nM with CTLA4 (human) and in the experiment with CD28 (human) were 2000 MFI and 2660 MFI, respectively. The MFI at 22.2 nM in the experiment with PD-L1 (human) was determined as 4410 MFI.

With “CD80 IgV-Fc V22I/L70M/A71D (from UniProt P33681 35-141) (Fc fusion)”, in the experiment with CD28 (human), the MFI at 66.6 nM is 22800 MFI. In addition, the MFI at 22.2 nM in the experiment with PD-L1 (human) stood at 33400 MFI.

For the substance “CD80 variant A91G/S103P ECD-Fc fusion (from UniProt P33681 35-242)”, the values for the MFI in experiment [4] and in [5] were 39 MFI and 9 MFI, respectively.

“CD80 variant E24G/R29D/Y31L/Q33H/K36G/M38I/T41A/M43R/M47T/F59L/E81V/L85R/K89N/A91T/F92P/K93V/R94L/H96R ECD-Fc fusion”: the MFI in [4] amounted to 1070 MFI; in experiment [5], 1120 MFI; in experiment [6], 1020 MFI. Moreover, the results for the MFI parental ratio (ratio to WT CD80 ECD-Fc) in [4], in experiment [5] and in experiment [6] were 0.08, 0.06 and 0.02, respectively.

Turning to “CD80 variant E52G/L70Q/A91G/T120S/T130A ECD-Fc fusion (from UniProt P33681 35-242)”, the MFI in [5] turned out to be 6 MFI; in [6] it was 245 MFI.

Regarding “CD80 variant IgV-Fc A26E/E35D/M47L/L85Q (from UniProt P33681 35-141) (Fc fusion)”, the figures for the MFI at 66.6 nM in [1] and in experiment [2] were 40300 MFI and 2270 MFI, respectively. In experiment [3], this substance registered an MFI at 22.2 nM of 55500 MFI.

Take “CD80 variant IgV-Fc A26P/E35D/M43I/L85Q/E88D (from UniProt P33681 35-141) (Fc fusion)”: the MFI at 66.6 nM worked out at 83100 MFI in experiment [1] and 5410 MFI in [2]. In experiment [3], this substance showed an MFI at 22.2 nM of 9510 MFI.

“CD80 variant IgV-Fc E23G/A26S/E35D/T62N/A71D/L72V/L85M (from UniProt P33681 35-141) (Fc fusion)”: the MFI at 66.6 nM stood at 59000 MFI in experiment [1] and 5480 MFI in experiment [2].

In the case of “CD80 variant IgV-Fc E35D/D46V/L85Q (from UniProt P33681 35-141) (Fc fusion)”, the MFI at 66.6 nM came out at 86000 MFI in [1] and 7510 MFI in experiment [2]. This substance also had an MFI at 22.2 nM in [3] of 38100 MFI.

Substance “CD80 variant IgV-Fc E35D/M43L/L70M (from UniProt P33681 35-141) (Fc fusion)” returned an MFI at 66.6 nM in experiment [1] of 102000 MFI. In addition, the MFI at 22.2 nM in [3] turned out to be 40600 MFI.

For “CD80 variant IgV-Fc L70Q/A71D (from UniProt P33681 35-141) (Fc fusion)”, the values for the MFI at 66.6 nM in experiment [1] and in experiment [2] were 45000 MFI and 18600 MFI, respectively. In addition, in experiment [3], the MFI at 22.2 nM was 1690 MFI.

On to “CD80 variant IgV-Fc M47V/I69F/A71D/V83I (from UniProt P33681 35-141) (Fc fusion)”, for which the MFI at 66.6 nM is 76900 MFI in experiment [1] and 15900 MFI in [2]. In addition, in experiment [3], the MFI at 22.2 nM came to 3400 MFI.

In turn, “CD80 variant IgV-Fc Q27H/E35G/A71D/L72P/T79I (from UniProt P33681 35-141) (Fc fusion)” came in with an MFI at 66.6 nM in [1] of 85100 MFI. Further, the MFI at 22.2 nM in experiment [3] is 1450 MFI.

Regarding “CD80 variant IgV-Fc Q27L/E35D/M47I/T57I/L70Q/E88D (from UniProt P33681 35-141) (Fc fusion)”, the MFI at 66.6 nM in experiment [1] came out at 59800 MFI. In [3], this substance gave an MFI at 22.2 nM of 1050 MFI.

As to “CD80 variant IgV-Fc T41S/T57I/L70R (from UniProt P33681 35-141) (Fc fusion)”, the figures for the MFI at 66.6 nM in experiment [1] and in [2] were 59800 MFI and 4900 MFI, respectively. The substance further returned an MFI at 22.2 nM in [3] of 19500 MFI.

On to “CD80 variant IgV-Fc V20I/A71D (from UniProt P33681 35-141) (Fc fusion)”, for which the MFI at 66.6 nM in experiment [1] came out at 60300 MFI. The MFI at 22.2 nM in [3] amounted to 3550 MFI.

As for “CD80 variant IgV-Fc V22L/E35D/M43L/A71G/D76H (from UniProt P33681 35-141) (Fc fusion)”, the results for the MFI at 66.6 nM in experiment [1] and in experiment [2] were 2970 MFI and 1500 MFI, respectively. This substance also had an MFI at 22.2 nM in [3] of 1850 MFI.

As for “CD80 variant K36E/I67T/L70Q/A91G/T120S/T130A/N152T ECD-Fc fusion (from UniProt P33681 35-242)”, the figures for the MFI in experiment [4] and in experiment [5] were 8 MFI and 5 MFI, respectively.

As for “CD80 variant K37E/F59S/L70Q/A91G/T120S/T130A ECD-Fc fusion (from UniProt P33681 35-242)”, the values for the MFI in experiment [4], in experiment [5] and in [6] were 20 MFI, 6 MFI and 74 MFI, respectively.

In the case of “CD80 variant K89E/T130A ECD-Fc fusion (from UniProt P33681 35-242)”, in experiment [6], the MFI turned out to be 148 MFI.

Consider “CD80 variant K89R/D90K/A91G/F92Y/K93R/N122S/N178S ECD-Fc fusion (from UniProt P33681 35-242)”, for which the MFI in experiment [4] amounted to 41700 MFI; in experiment [6], 49400 MFI.

Regarding “CD80 variant L70Q/A91G/T110A/T120S/T130A ECD-Fc fusion (from UniProt P33681 35-242)”, the MFI in experiment [6] stood at 14 MFI.

Turning to “CD80 variant N63S/L70Q/A91G/T120S/T130A ECD-Fc fusion (from UniProt P33681 35-242)”, the MFI in experiment [4] was 124 MFI; in [5], 6 MFI; in experiment [6], 165 MFI.

For “CD80 variant T28S/L70Q/A91G/E95K/T120S/T130A ECD-Fc fusion (from UniProt P33681 35-242)”, the MFI in experiment [4] was 32 MFI; in experiment [5] it was 6 MFI; in experiment [6] it was 65 MFI.

In the case of “CD80 variant V4M/L70Q/A91G/T120S/T130A ECD-Fc fusion”, the MFI came to 89 MFI in [4], 6 MFI in experiment [5] and 263 MFI in [6]. Besides, the MFI parental ratio (ratio to WT CD80 ECD-Fc) in experiment [4] came to 0.94; in experiment [5], 0.09; in experiment [6], 1.26.

Source of the values: patent publication US20200040059A1.
